# Data as given in the supplement of paper PMC11865577.
# Columns and labels:
# Test in all cases: pull-down binding Z-score (relative to library population); higher = stronger binding
# Details in all cases: RNA library: Library-2
# [1] = system: TO-3-N3 (biotin conjugate)
# How it was run: (§1)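 Streptavidin beads with 100 pmol of biotin-conjugated small molecule were incubated for 60 min at 25 °C with 1 μg of heat-folded Cy5- or Cy3-end-labelled RNA library in phosphate/NaCl/KCl buffer. Bound RNA was eluted in hot SDS after three washes and hybridised to a DNA barcode microarray at 55.5 °C for 20 h. Each binding score is a library-referenced Z-score, computed after beads-only subtraction and a trimmed mean of barcoded replicate probes.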
# [2] = system: TO-3-N3-2 (biotin conjugate)
# How it was run: as §1
# [3] = system: TO-N3 (biotin conjugate)
# How it was run: as §1
# [4] = system: TO-N3-2 (biotin conjugate)
# How it was run: as §1
Sequence,pull-down binding Z-score [1],pull-down binding Z-score [2],pull-down binding Z-score [3],pull-down binding Z-score [4]
GUUCUUUGAGAAC [IAV_invivo_PA_3_Motif_25+IAV_invivo_PA_3_Motif_25],0.296,-0.317,0.0597,-0.894
GUUGAAGAAGUUACAAC,0.355,0.148,0.365,-0.168
GUUGAAGUUGUUGAUAAGUACUUUGAUUGUUACGAUGGUGGCUGUAUUAAUGCUAACCAAGUCAUCGUCAACAACCUAGACAAAUCAGCUGGUUUUCCAUUUAAU,-0.27,-0.0144,0.0753,0.567
GUUGACAGGACACGAGUAACUCGUCUAUCUUCUGCAGGCUGCUUACGGUUUCGUCCGUGUUGCAGCCGAUCAUCAGC,-0.282,-0.335,0.461,1.31
GUUGAUGAGCCUGAAGAACAUGUCCAAAUUCACACAAUCGACGGUUCAUCCGGAGUUGUUAAUCCAGUAAUGGAACCAAUUUAUGAUGAACCGACGACGAC,0.104,-0.311,0.862,0.77
GUUGAUUUUUGUGGAAAGGGCUAUCAUCUUAUGUCCUUCCCUCAGUCAGC [SHAPE_invitro_SARS-CoV-2_Motif_447],-1.02,-0.325,-1.18,-0.89
GUUGCGUCACCAAAUGAAUGCAAC,-0.989,-0.49,-1.3,-1.2
GUUGCUGUACCUACAGGUUAUGUUGAUACACCUAAUAAUACAGAUUUUUCCAGAGUUAGUGCUAAACCACCGCCUGGAGAUCAAU [SHAPE_invitro_SARS-CoV-2_Multi_51_ComplexLevel_1],0.475,-0.139,0.691,0.329
GUUGGAUAAUGAUGCACUCAACAACAUUAUCAAC,-0.974,-0.75,-1.35,-0.9
GUUGUAGACGGUUGUAAUUCAUCAACUUGUAUGAUGUGUUACAAACGUAAUAGAGC [SHAPE_invivo_SARS-CoV-2_Motif_153],-0.547,-0.153,-0.562,-0.564
GUUGUAGACGGUUGUAAUUCAUCAACUUGUAUGAUGUGUUACAAACGUAAUAGAGCAAC,-0.88,-0.529,-0.954,-0.288
GUUGUCGCUUCCAAGAAAAGGACGAAGAUGACAAU [SHAPE_invitro_SARS-CoV-2_Motif_248],0.276,0.224,0.141,0.292
GUUGUCUUGAAAACUGGUGAUUUACAACCAUUAGAACAACCUACUAGUGAAGCUGUUGAAGCUCCAUUGGUUGGUACACCAGUUUGUAUUAAC,-0.52,-0.367,-0.376,-0.384
GUUGUCUUUGAUGAAAUUUCAAUGGCCAC [DMSMaPseq_invitro_SARS-CoV-2_Motif_310],-0.693,-0.29,-0.615,0.376
GUUGUUACUCACAAUUUUGACUUCACUUUUAGUUUUAGUCCAGAGUACUCAAU,-0.826,-0.324,-0.965,-0.924
GUUUAAGGAAGGUGUAGAGUUUCUUAGAGAC,-0.375,0.179,0.119,0.726
GUUUACAACAGUAGAC,0.0879,-0.155,-0.136,-1.28
GUUUAUGAAAAACUCAAACCCGUCCUUGAUUGGCUUGAAGAGAAGUUUAAGGAAGGUGUAGAGUUUCUUAGAGAC,0.121,-0.241,0.416,-0.0848
GUUUCGGAAGAGAC,-0.255,-0.443,-0.448,-0.706
GUUUCUGCCUUUCCAACAAUUUGGCAGAGAC,-0.615,-0.306,-0.868,-0.994
GUUUGUCUUAGUGGUUUAGAUUCUUUAGACACCUAUCCUUCUUUAGAAACUAUACAAAU,-0.000875,0.0248,0.0216,-0.533

Sequence,pull-down binding Z-score [1],pull-down binding Z-score [2],pull-down binding Z-score [3],pull-down binding Z-score [4]
GUUUGUGUAUCUACUAGUGGUAGAUGGGUACUUAAC,-0.677,-0.279,-0.726,-1.05
GUUUUAAUUAUGCUUAUUAUCUUUUGGUUCUCACUUGAACUGCAAGAUCAUAAUGAAAC,-0.212,-0.144,-0.503,-1.02
GUUUUCUACAAAGAAAAC,-0.676,-0.524,-1.09,-1.75
GUUUUUCUGUUUGGAACUUUAAUUUUAGCCAUGGCAGAUUCCAACGGUACUAUUACCGUUGAAGAGCUUAAAAAGCUCCUUGAAC,-0.86,-0.23,-0.856,-0.41
GUUUUUGUACACAAUUAAACCGUGCUUUAACUGGAAUAGCUGUUGAACAAGACAAAAAC [DMSMaPseq_invitro_SARS-CoV-2_Motif_424],0.247,-0.127,0.21,-0.336
UAAAAUGAAUUAUCAAGUUA [DMSMaPseq_invitro_SARS-CoV-2_Motif_325],-0.703,-0.451,-1.04,-1.2
UAAACACGCUUGUUAAACAACUUAGCUCCAAUUUUGGUGCAAUUUCAAGUGUUUUA [SHAPE_invitro_SARS-CoV-2_Motif_443],-0.82,-0.221,-0.925,-0.333
UAAACCACCCAUUAGUUUUCCAUUGUGUGCUAAUGGACAAGUUUUUGGUUUA [SHAPE_invivo_SARS-CoV-2_Motif_310],-0.757,-0.357,-1,-1.35
UAAAGAACUUUAAGUCAGUUCUUUA,-0.827,-0.501,-1.25,-1.19
UAAAGCCACGUAUAAACCAAAUACCUGGUGUAUACGUUGUCUUUG,-0.523,-0.279,-0.75,-0.691
UAAAGUACUUAAUGAGAAGUGCUCUGCCUAUACAGUUGAACUCGGUACAGAAGUAAAUGAGUUCGCCUGUGUUGUGGCAGAUGCUGUCAUAAAAACUUUG [DMSMaPseq_invitro_SARS-CoV-2_Motif_52],-0.419,0.122,-0.501,0.722
UAAAUAAGGGACACUUUGAUGGACAACAGGGUGAAGUACCAGUUUCUAUCAUUAAUAACACUGUUUACACAAAAGUUGAUGGUGUUGAUGUAGAAUUGUUUG,-0.266,0.0932,-0.00789,-0.111
UAAAUUUUUGGCUUUGUGUGCUGACUCUAUCAUUAUUGGUGGAGCUAAACUUAAAGCCUUGAAUUUA,-0.848,0.0426,-0.962,-1.2
UAACACCAGGAACAAAUACUUCUAACCAGGUUGCUGUUCUUUAUCAGGGUGUUA [SHAPE_invivo_SARS-CoV-2_Motif_440],-0.383,-0.22,-0.633,-1.19
UAACAGUUACACCGGAAGCCAAUAUGGAUCAAGAAUCCUUUGGUGGUGCAUCGUGUUG,-0.833,-0.365,-0.9,-0.452
UAAGGAAGGAAGUUCUGUUGAAUUAAAACACUUCUUCUUUG [SHAPE_invitro_SARS-CoV-2_Motif_269],-0.963,-0.389,-1.1,-0.905
UAAGGAGAGUGUUCAGACAUUCUUUAAGCUUG [DMSMaPseq_invitro_SARS-CoV-2_Motif_43],-0.408,-0.244,-0.507,-0.426
UAAUAACGCUACUAAUGUUGUUAUUA,-0.595,-0.411,-1.02,-1.73
UAAUCAGACAAGGAACUGAUUA,-0.426,-0.537,-0.836,-0.943
UAAUGGUUUAACUUCUAUUA [DMSMaPseq_invitro_SARS-CoV-2_Motif_100],-0.945,-0.395,-1.33,-1.37
UAAUUAUAAAUUACCAGAUGAUUUUACAGGCUGCGUUAUAGCUUGGAAUUCUAACAAUCUUGAUUCUAAGGUUGGUGGUAAUUAUAAUUA,-0.486,0.371,-0.838,-0.713

Sequence,pull-down binding Z-score [1],pull-down binding Z-score [2],pull-down binding Z-score [3],pull-down binding Z-score [4]
UAAUUCUUGGCUUAUGUGGUUAAUAAUUA [DMSMaPseq_invitro_SARS-CoV-2_Motif_139],-0.0604,-0.0756,-0.293,-0.709
UACAAACUUGUG [DMSMaPseq_invitro_SARS-CoV-2_Motif_398],-0.625,-0.609,-1.02,-1.04
UACAAUUUGCCUAUGCCAACAGGAAUAGGUUUUUGUA,0.38,-0.176,-0.122,-1.3
UACAUGUGUUGGUAGCGAUAAUGUUACUGACUUUAAUGCAAUUGCAACAUGUG [DMSMaPseq_invitro_SARS-CoV-2_Multi_49_ComplexLevel_1],-0.662,0.0202,-0.826,-0.909
UACCAGACUAUAACACAUAUAAAAAUACGUGUGAUGGUA [DMSMaPseq_invitro_SARS-CoV-2_Motif_221],-0.929,-0.385,-1.03,-1.24
UACCAGCUGUACUCAACUCAAUUGAGUACAGACACUGGUG [DMSMaPseq_invitro_SARS-CoV-2_Motif_468],-0.751,-0.473,-1.16,-1.06
UACCAUUUAAUGAUGGUG,0.115,-0.21,-0.0588,-1.03
UACCGAUGCCAUAGAGGUG [IAV_invivo_PB1_2_Motif_30+IAV_invivo_PB1_2_Motif_30],-0.183,-0.0397,-0.0495,0.166
UACCUUUUGCUAUGGGUA,-0.317,-0.454,-0.582,-1.26
UACUAAUAUGUUUACACCACUAAUUCAACCUAUUGGUGCUUUGGACAUAUCAGCAUCUAUAGUAGCUGGUGGUAUUGUAGCUAUCGUAGUA [SHAPE_invivo_SARS-CoV-2_Motif_188],0.0327,0.253,0.303,0.354
UACUGGUUCUAUACCUUGUA [SARS-CoV-2-Conserved-Structured-4_Interval-7011-7130_Motif_3],0.217,-0.095,-0.0242,-0.722
UACUUUACUCAGAGUA [SHAPE_invitro_SARS-CoV-2_Motif_368],-1.06,-0.589,-1.58,-1.64
UAGAAUAGACGGUGACAUGGUACCACAUAUAUCACGUCAACGUCUUACUA [SHAPE_invivo_SARS-CoV-2_Motif_261],-0.605,-0.164,-0.562,-0.953
UAGACAAUUCUAGUCUUACUAUUAAGAAACCUAAUGAAUUAUCUA [SHAPE_invivo_SARS-CoV-2_Motif_135],-1.02,-0.287,-1.27,-1.41
UAGAGAAAACAACAGAGUUGUUAUUUCUAGUGAUGUUCUUGUUAACAACUAAACGAACAAUGUUUGUUUUUCUUGUUUUAUUGCCACUAGUCUCUA [SHAPE_invitro_SARS-CoV-2_Multi_58_ComplexLevel_1],-0.989,-0.215,-0.976,-0.78
UAGAGGUACAACAGUACUUUUA,-0.813,-0.423,-1.12,-1.28
UAGAGUGCUAUCUA [SHAPE_invitro_SARS-CoV-2_Motif_352],-0.809,-0.553,-0.957,-0.86
UAGAUGCUGUAAAUUUACUUACUAAUAUGUUUACACCACUAAUUCAACCUAUUGGUGCUUUGGACAUAUCAGCAUCUA [DMSMaPseq_invitro_SARS-CoV-2_Multi_30_ComplexLevel_1],0.39,-0.0621,0.0803,-0.105
UAGCGUGCCUUUGUAAGCACAAGCUG,0.532,0.0842,0.57,0.342
UAGCUGGUUUUGCUA [SHAPE_invivo_SARS-CoV-2_Motif_257],0.71,0.105,0.281,-0.612
UAGCUGUACCCUAUAAUAUGAGAGUUAUACAUUUUGGUGCUGGUUCUGAUAAAGGAGUUGCACCAGGUACAGCUG,-0.371,-0.121,-0.515,-0.588
